According to publication doi:10.1101/2022.05.07.491039 (bioRxiv, 2022):

B3: β-catenin (natural protein)
chain: MATQADLMELDMAMEPDRKAAVSHWQQQSYLDSGIHSGATTTAPSLSGKGNPEEEDVDTSQVLYEWEQGFSQSFTQEQVADIDGQYAMTRAQRVRAAMFPETLDEGMQIPSTQFDAAHPTNVQRLAEPSQMLKHAVVNLINYQDDAELATRAIPELTKLLNDEDQVVVNKAAVMVHQLSKKEASRHAIMRSPQMVSAIVRTMQNTNDVETARCTAGTLHNLSHHREGLLAIFKSGGIPALVKMLGSPVDSVLFYAITTLHNLLLHQEGAKMAVRLAGGLQKMVALLNKTNVKFLAITTDCLQILAYGNQESKLIILASGGPQALVNIMRTYTYEKLLWTTSRVLKVLSVCSSNKPAIVEAGGMQALGLHLTDPSQRLVQNCLWTLRNLSDAATKQEGMEGLLGTLVQLLGSDDINVVTCAAGILSNLTCNNYKNKMMVCQVGGIEALVRTVLRAGDREDITEPAICALRHLTSRHQEAEMAQNAVRLHYGLPVVVKLLHPPSHWPLIKATVGLIRNLALCPANHAPLREQGAIPRLVQLLVRAHQDTQRRTSMGGTQQQFVEGVRMEEIVEGCTGALHILARDVHNRIVIRGLNTIPLFVQLLYSPIENIQRVAAGVLCELAQDKEAAEAIEAEGATAPLTELLHSRNEGVATYAAAVLFRMSEDKPQDYKKRLSVELTSSLFRTEPMAWNETADLGLDIGAQGEALGYRQDDPSYRSFHSGGYGQDALGMDPMMEHEMGGHHPGADYPVDGLPDLGHAQDLMDGLPPGDSNQLAWFDTDL

Legend:
Experiment in all cases: SEC
αE-catenin R551A = biological target: T1, αE-catenin R551A (mouse, UniProt P26231 1-906, R551A)
T1 sequence: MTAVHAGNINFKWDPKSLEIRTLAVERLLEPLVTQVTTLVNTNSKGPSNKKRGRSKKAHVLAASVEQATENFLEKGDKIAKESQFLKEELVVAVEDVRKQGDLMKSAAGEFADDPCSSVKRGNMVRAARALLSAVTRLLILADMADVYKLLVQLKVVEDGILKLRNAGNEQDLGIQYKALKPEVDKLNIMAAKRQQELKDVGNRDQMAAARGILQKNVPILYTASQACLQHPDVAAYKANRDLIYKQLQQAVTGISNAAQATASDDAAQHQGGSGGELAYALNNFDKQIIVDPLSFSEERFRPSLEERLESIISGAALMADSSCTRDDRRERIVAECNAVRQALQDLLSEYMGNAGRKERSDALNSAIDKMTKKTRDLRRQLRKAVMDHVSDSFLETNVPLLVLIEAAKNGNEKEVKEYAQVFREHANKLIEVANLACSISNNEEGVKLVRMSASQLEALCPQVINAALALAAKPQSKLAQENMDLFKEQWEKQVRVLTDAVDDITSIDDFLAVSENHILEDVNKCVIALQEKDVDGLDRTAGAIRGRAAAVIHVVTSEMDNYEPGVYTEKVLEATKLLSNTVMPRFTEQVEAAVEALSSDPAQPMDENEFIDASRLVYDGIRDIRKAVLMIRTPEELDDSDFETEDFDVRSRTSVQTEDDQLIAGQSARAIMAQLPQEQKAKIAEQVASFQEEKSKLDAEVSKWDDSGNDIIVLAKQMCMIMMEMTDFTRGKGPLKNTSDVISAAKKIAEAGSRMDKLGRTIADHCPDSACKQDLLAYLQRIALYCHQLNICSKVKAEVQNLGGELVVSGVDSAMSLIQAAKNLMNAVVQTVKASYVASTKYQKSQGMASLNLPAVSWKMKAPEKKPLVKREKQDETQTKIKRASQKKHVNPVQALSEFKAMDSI

β-catenin = biological target: B3
[1] = biological target: T2, full-length murine αE-catenin (mouse, UniProt P26231 1-906)
T2 sequence: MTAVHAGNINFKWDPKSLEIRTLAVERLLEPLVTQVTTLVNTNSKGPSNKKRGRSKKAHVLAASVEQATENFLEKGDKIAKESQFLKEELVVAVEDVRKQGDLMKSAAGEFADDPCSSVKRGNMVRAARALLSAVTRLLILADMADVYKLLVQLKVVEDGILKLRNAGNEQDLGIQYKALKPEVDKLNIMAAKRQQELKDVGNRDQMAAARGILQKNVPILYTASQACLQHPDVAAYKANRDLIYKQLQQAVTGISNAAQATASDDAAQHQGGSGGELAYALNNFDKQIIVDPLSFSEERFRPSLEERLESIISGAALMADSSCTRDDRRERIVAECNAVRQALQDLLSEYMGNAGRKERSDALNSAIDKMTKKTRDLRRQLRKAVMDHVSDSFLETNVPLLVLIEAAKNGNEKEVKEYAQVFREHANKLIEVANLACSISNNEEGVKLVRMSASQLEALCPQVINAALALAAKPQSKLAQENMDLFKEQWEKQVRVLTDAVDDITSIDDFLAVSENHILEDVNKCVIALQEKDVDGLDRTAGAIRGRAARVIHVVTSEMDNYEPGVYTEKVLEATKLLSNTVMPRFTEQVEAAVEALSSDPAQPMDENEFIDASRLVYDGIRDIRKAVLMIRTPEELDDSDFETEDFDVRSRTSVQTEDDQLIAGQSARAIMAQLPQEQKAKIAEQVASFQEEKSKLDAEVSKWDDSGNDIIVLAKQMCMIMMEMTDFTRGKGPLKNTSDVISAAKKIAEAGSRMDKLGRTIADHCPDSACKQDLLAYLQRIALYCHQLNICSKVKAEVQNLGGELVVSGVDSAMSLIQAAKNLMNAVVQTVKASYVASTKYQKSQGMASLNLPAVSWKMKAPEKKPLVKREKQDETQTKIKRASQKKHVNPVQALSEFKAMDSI

B1: chicken vinculin D1 domain (aa 1-259) (domain or fragment)
chain: MPVFHTRTIESILEPVAQQISHLVIMHEEGEVDGKAIPDLTAPVSAVQAAVSNLVRVGKETVQTTEDQILKRDMPPAFIKVENACTKLVRAAQMLQADPYSVPARDYLIDGSRGILSGTSDLLLTFDEAEVRKIIRVCKGILEYLTVAEVVETMEDLVTYTKNLGPGMTKMAKMIDERQQELTHQEHRVMLVNSMNTVKELLPVLISAMKIFVTTKNTKSQGIEEALKNRNFTVEKMSAEINEIIRVLQLTSWDEDAWA
B1: binds (αE-catenin R551A).

B2: Mouse E-cadherin cytoplasmic domain (domain or fragment)
chain: not shown
B2: binds (β-catenin).

B3: binds [1]; binds (αE-catenin R551A).

B4: β-catenin 78-671 (domain or fragment)
chain: QVADIDGQYAMTRAQRVRAAMFPETLDEGMQIPSTQFDAAHPTNVQRLAEPSQMLKHAVVNLINYQDDAELATRAIPELTKLLNDEDQVVVNKAAVMVHQLSKKEASRHAIMRSPQMVSAIVRTMQNTNDVETARCTAGTLHNLSHHREGLLAIFKSGGIPALVKMLGSPVDSVLFYAITTLHNLLLHQEGAKMAVRLAGGLQKMVALLNKTNVKFLAITTDCLQILAYGNQESKLIILASGGPQALVNIMRTYTYEKLLWTTSRVLKVLSVCSSNKPAIVEAGGMQALGLHLTDPSQRLVQNCLWTLRNLSDAATKQEGMEGLLGTLVQLLGSDDINVVTCAAGILSNLTCNNYKNKMMVCQVGGIEALVRTVLRAGDREDITEPAICALRHLTSRHQEAEMAQNAVRLHYGLPVVVKLLHPPSHWPLIKATVGLIRNLALCPANHAPLREQGAIPRLVQLLVRAHQDTQRRTSMGGTQQQFVEGVRMEEIVEGCTGALHILARDVHNRIVIRGLNTIPLFVQLLYSPIENIQRVAAGVLCELAQDKEAAEAIEAEGATAPLTELLHSRNEGVATYAAAVLFRMSEDKPQDYK
B4: binds [1].
